Target: the molecule itself
Test: NMR

B1: Tyr-705-phosphorylated STAT3 (127-711)-His6 (domain or fragment, human, UniProt P40763 127-711, looked up)
chain: GQANHPTAAVVTEKQQMLEQHLQDVRKRVQDLEQKMKVVENLQDDFDFNYKTLKSQGDMQDLNGNNQSVTRQKMQQLEQMLTALDQMRRSIVSELAGLLSAMEYVQKTLTDEELADWKRRQQIACIGGPPNICLDRLENWITSLAESQLQTRQQIKKLEELQQKVSYKGDPIVQHRPMLEERIVELFRNLMKSAFVVERQPCMPMHPDRPLVIKTGVQFTTKVRLLVKFPELNYQLKIKVCIDKDSGDVAALRGSRKFNILGTNTKVMNMEESNNGSLSAEFKHLTLREQRCGNGGRANCDASLIVTEELHLITFETEVYHQGLKIDLETHSLPVVVISNICQMPNAWASILWYNMLTNNPKNVNFFTKPPIGTWDQVAEVLSWQFSSTTKRGLSIEQLTTLAEKLLGPGVNYSGCQITWAKFCKENMAGKGFSFWVWLDNIIDLVKKYILALWNEGYIMGFISKERERAILSTKPPGTFLLRFSESSKEGGVTFTWVEKDISGKTQIQSVEPYTKQQLNNMSFAEIIMGYKIMDATNILVSPLVYLYPDIPKEEAFGKYCRPESQEHPEADPGSAAPYLKTKFI
modifications: phosphotyrosine at 705
  dH (van't Hoff, monomer-dimer equilibrium, from I568 and I654): 14.8 ± 1.1 kcal/mol
  dH (van't Hoff, monomer-dimer equilibrium, from I653 and I711): 12.8 ± 0.5 kcal/mol

Reference: paper PMC4767637 (Journal of molecular biology, 2016)
